For one substance, colony formation inhibition assay, A9 cells under G418 selection results are on record in patent US20100144847A1.

This assay concerns the target tropomyosin. As to the kind of experiment: cell-based or functional assay.

In turn, GFP-CKIIα (from UniProt Q60737 1-391) showed a colony formation inhibition assay, A9 cells under G418 selection of over 2000 colonies.
